Measured values taken from PMC10681739, “High-throughput data and modeling reveal insights into the mechanisms of cooperative DNA-binding by transcription factor proteins”.

T1: ETS1 (Homo sapiens, UniProt P14921)
T1 sequence: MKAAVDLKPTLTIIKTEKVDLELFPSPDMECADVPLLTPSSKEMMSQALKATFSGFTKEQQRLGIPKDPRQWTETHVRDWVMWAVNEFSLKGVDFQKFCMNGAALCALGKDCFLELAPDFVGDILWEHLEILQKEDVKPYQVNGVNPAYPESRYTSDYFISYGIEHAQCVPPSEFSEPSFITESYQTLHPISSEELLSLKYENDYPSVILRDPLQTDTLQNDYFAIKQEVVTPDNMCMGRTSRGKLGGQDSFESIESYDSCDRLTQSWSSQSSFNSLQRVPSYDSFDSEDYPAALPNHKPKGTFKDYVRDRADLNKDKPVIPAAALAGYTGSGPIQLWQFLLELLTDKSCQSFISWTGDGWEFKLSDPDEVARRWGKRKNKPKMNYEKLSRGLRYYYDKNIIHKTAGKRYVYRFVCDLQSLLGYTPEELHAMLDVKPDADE


Target: T1, ETS1
Experiment: gcPBM; 1 nM ETS1
Settings: tags: N-terminal GST (pDEST15), kept (PMC6008103); label: surface-attached array probe

Row | Binder | binding signal
1 | Table S2 B row 3063 (dsDNA) DNA 1: GTATCACTTCCTGTTTTCCTCTGTAGCTTACTGCTG DNA 2: CAGCAGTAAGCTACAGAGGAAAACAGGAAGTGATAC | 30200 PBM fluorescence, median of replicate spots
2 | Table S2 B row 3240 (dsDNA) DNA 1: CTGTCCGCGACATCCGGGACCTGGGGGACCGCCGAT DNA 2: ATCGGCGGTCCCCCAGGTCCCGGATGTCGCGGACAG | 8950 PBM fluorescence, median of replicate spots
3 | Table S2 C row 4 (dsDNA) DNA 1: GAAAGAGCGAAATGTTGCGGTTTAGTTAATGCTTTG DNA 2: CAAAGCATTAACTAAACCGCAACATTTCGCTCTTTC | 442 PBM fluorescence, median of replicate spots
4 | Table S2 B row 2565 (dsDNA) DNA 1: AGCCACATCCTGGACAAAAGCTGTTGTCTAGTAACC DNA 2: GGTTACTAGACAACAGCTTTTGTCCAGGATGTGGCT | 7070 PBM fluorescence, median of replicate spots
5 | Table S2 B row 2131 (dsDNA) DNA 1: CTACTTTCCGGTCAACGCGGCCTGGGGTACCACCTC DNA 2: GAGGTGGTACCCCAGGCCGCGTTGACCGGAAAGTAG | 9890 PBM fluorescence, median of replicate spots
6 | Table S2 B row 1811 (dsDNA) DNA 1: GGTTTCGCTTCCGGGTTAGGCGGCCGGAGAAGCGTA DNA 2: TACGCTTCTCCGGCCGCCTAACCCGGAAGCGAAACC | 11000 PBM fluorescence, median of replicate spots
7 | Table S2 B row 1635 (dsDNA) DNA 1: GGACAGGAAGTTCCTGCAGCTTCTACCCCAAACCTA DNA 2: TAGGTTTGGGGTAGAAGCTGCAGGAACTTCCTGTCC | 9480 PBM fluorescence, median of replicate spots
8 | Table S2 B row 3759 (dsDNA) DNA 1: AGCGGCTCCTTCCGGCGGCGCCGGTTCCCTTCCCTC DNA 2: GAGGGAAGGGAACCGGCGCCGCCGGAAGGAGCCGCT | 6670 PBM fluorescence, median of replicate spots
9 | Table S2 B row 1777 (dsDNA) DNA 1: CCTTCCTTCCGCTGGCAGTAACTAGGCAGTGGACAC DNA 2: GTGTCCACTGCCTAGTTACTGCCAGCGGAAGGAAGG | 5510 PBM fluorescence, median of replicate spots
10 | Table S2 B row 3509 (dsDNA) DNA 1: CATGAGAAACATCCTGCCCAACAACCTGACTACAAG DNA 2: CTTGTAGTCAGGTTGTTGGGCAGGATGTTTCTCATG | 5340 PBM fluorescence, median of replicate spots
11 | Table S2 B row 2744 (dsDNA) DNA 1: TTAGCACATCCTGGGTACACAGAGCACAGCCTCCTC DNA 2: GAGGAGGCTGTGCTCTGTGTACCCAGGATGTGCTAA | 5610 PBM fluorescence, median of replicate spots
12 | Table S2 B row 1299 (dsDNA) DNA 1: AGGAGTGTCACTTCCTCTTTCCTCACCAGAGCCTCC DNA 2: GGAGGCTCTGGTGAGGAAAGAGGAAGTGACACTCCT | 9350 PBM fluorescence, median of replicate spots
13 | Table S2 B row 3820 (dsDNA) DNA 1: GGCGGCTTCCGGGATCTGCCTGGCGCTTGCTTTGTC DNA 2: GACAAAGCAAGCGCCAGGCAGATCCCGGAAGCCGCC | 8430 PBM fluorescence, median of replicate spots
14 | Table S2 B row 3959 (dsDNA) DNA 1: AAGGGCAAAGTCACAGCCACTTCCGCCCAGCGCTTC DNA 2: GAAGCGCTGGGCGGAAGTGGCTGTGACTTTGCCCTT | 7470 PBM fluorescence, median of replicate spots
15 | Table S2 B row 3124 (dsDNA) DNA 1: TCCACATCCTGCTCCTCGGGTTTACGGCGAGGACTC DNA 2: GAGTCCTCGCCGTAAACCCGAGGAGCAGGATGTGGA | 10800 PBM fluorescence, median of replicate spots
16 | Table S2 B row 785 (dsDNA) DNA 1: ATAGTCTCTTCCTGTGTTGCAAATCACAGGTCCACC DNA 2: GGTGGACCTGTGATTTGCAACACAGGAAGAGACTAT | 7860 PBM fluorescence, median of replicate spots
17 | Table S2 B row 741 (dsDNA) DNA 1: CAACTTCCGGGGCCGGTTGCCTGGCAACAGCAGGAG DNA 2: CTCCTGCTGTTGCCAGGCAACCGGCCCCGGAAGTTG | 35000 PBM fluorescence, median of replicate spots
18 | Table S2 B row 1677 (dsDNA) DNA 1: TGTTTTTGTTTCCGTTTACAAACTACAACAAAGGTG DNA 2: CACCTTTGTTGTAGTTTGTAAACGGAAACAAAAACA | 5730 PBM fluorescence, median of replicate spots
19 | Table S2 B row 1434 (dsDNA) DNA 1: GGCCGGAAGCGCTCTCGTTGGCCCAGCGGCGCTGGA DNA 2: TCCAGCGCCGCTGGGCCAACGAGAGCGCTTCCGGCC | 6040 PBM fluorescence, median of replicate spots
20 | Table S2 B row 559 (dsDNA) DNA 1: GCAGCATTTCCTGACTTCTTCGCCCCTGTCGTTGCA DNA 2: TGCAACGACAGGGGCGAAGAAGTCAGGAAATGCTGC | 6900 PBM fluorescence, median of replicate spots
21 | Table S2 B row 1656 (dsDNA) DNA 1: CTCTGAGCAGGAAGTGACAAATCCACGCAGGGCAGG DNA 2: CCTGCCCTGCGTGGATTTGTCACTTCCTGCTCAGAG | 6750 PBM fluorescence, median of replicate spots

Row | Binder | binding signal
22 | Table S2 B row 1497 (dsDNA) DNA 1: CAACACAGGATGTGCAGTATTATACGGCAAAGCACT DNA 2: AGTGCTTTGCCGTATAATACTGCACATCCTGTGTTG | 6480 PBM fluorescence, median of replicate spots
23 | Table S2 B row 2669 (dsDNA) DNA 1: CCCCTCAGCTTCCGGGTGCTGCGCCCGAGGCCGAGA DNA 2: TCTCGGCCTCGGGCGCAGCACCCGGAAGCTGAGGGG | 9110 PBM fluorescence, median of replicate spots
24 | Table S2 B row 1623 (dsDNA) DNA 1: ACATTTCCGTTCAGCTCAGTGTTCACGGTGCGAGAC DNA 2: GTCTCGCACCGTGAACACTGAGCTGAACGGAAATGT | 32300 PBM fluorescence, median of replicate spots
25 | Table S2 B row 526 (dsDNA) DNA 1: TTACTTCCTGAGGGTGCACAGGCTGGGGTCGTCTAT DNA 2: ATAGACGACCCCAGCCTGTGCACCCTCAGGAAGTAA | 8570 PBM fluorescence, median of replicate spots
26 | Table S2 B row 2489 (dsDNA) DNA 1: CCTTCCTTCCTGCTGTGTACGTTGGGGTCACAGCAC DNA 2: GTGCTGTGACCCCAACGTACACAGCAGGAAGGAAGG | 5450 PBM fluorescence, median of replicate spots
27 | Table S2 B row 771 (dsDNA) DNA 1: AACAGGAAGTGGTCTTAGAGATCATGGGGTTCAGAG DNA 2: CTCTGAACCCCATGATCTCTAAGACCACTTCCTGTT | 7400 PBM fluorescence, median of replicate spots
28 | Table S2 B row 2829 (dsDNA) DNA 1: AGTGTCCGCCGCTTCCTGGTTGCGCGTCAGCGCCCA DNA 2: TGGGCGCTGACGCGCAACCAGGAAGCGGCGGACACT | 5900 PBM fluorescence, median of replicate spots
29 | Table S2 B row 2712 (dsDNA) DNA 1: TGGGGCGAAATCCACTGACTTCCGGCTACGCCGTTG DNA 2: CAACGGCGTAGCCGGAAGTCAGTGGATTTCGCCCCA | 10100 PBM fluorescence, median of replicate spots
30 | Table S2 B row 2356 (dsDNA) DNA 1: CTTCTTCCTGCTGAGACTGATACAGCCCGAAAAGCT DNA 2: AGCTTTTCGGGCTGTATCAGTCTCAGCAGGAAGAAG | 6230 PBM fluorescence, median of replicate spots
31 | Table S2 B row 185 (dsDNA) DNA 1: GCCAGGAGGACTTCCGGGTGGGTGTGATATCTGCGA DNA 2: TCGCAGATATCACACCCACCCGGAAGTCCTCCTGGC | 11300 PBM fluorescence, median of replicate spots
32 | Table S2 B row 16 (dsDNA) DNA 1: CCACTGCTTCCGCCTTCTCTGCTGGCTGAGGGGAGC DNA 2: GCTCCCCTCAGCCAGCAGAGAAGGCGGAAGCAGTGG | 8730 PBM fluorescence, median of replicate spots
33 | Table S2 B row 2731 (dsDNA) DNA 1: AGAACCACTTCCTCTCAGTAAATCACAGAGACTGTA DNA 2: TACAGTCTCTGTGATTTACTGAGAGGAAGTGGTTCT | 10400 PBM fluorescence, median of replicate spots
34 | Table S2 B row 717 (dsDNA) DNA 1: AATCCCGGAAACGCGGATTCAGCGGAGCGCGGCGAC DNA 2: GTCGCCGCGCTCCGCTGAATCCGCGTTTCCGGGATT | 7670 PBM fluorescence, median of replicate spots
35 | Table S2 B row 2465 (dsDNA) DNA 1: CTACGACTTCCGTGATGCCTTACGGTTGCTGTAGCC DNA 2: GGCTACAGCAACCGTAAGGCATCACGGAAGTCGTAG | 7160 PBM fluorescence, median of replicate spots
36 | Table S2 B row 2841 (dsDNA) DNA 1: CCTGTTTCCTGCCATCTGCCCTTCCTTTGGGGTCAA DNA 2: TTGACCCCAAAGGAAGGGCAGATGGCAGGAAACAGG | 8210 PBM fluorescence, median of replicate spots
37 | Table S2 B row 4089 (dsDNA) DNA 1: GCTGTTTCCTGCTGATAAAAACACCCCTCAACTTCA DNA 2: TGAAGTTGAGGGGTGTTTTTATCAGCAGGAAACAGC | 11800 PBM fluorescence, median of replicate spots
38 | Table S2 B row 1200 (dsDNA) DNA 1: GGTTCATTTCCTTTTCCTCCTTGGGGTATAAAAGAG DNA 2: CTCTTTTATACCCCAAGGAGGAAAAGGAAATGAACC | 8120 PBM fluorescence, median of replicate spots
39 | Table S2 B row 123 (dsDNA) DNA 1: ACAACCCGGAAGTTGGCGCAGCGCGCTTGCCAATGG DNA 2: CCATTGGCAAGCGCGCTGCGCCAACTTCCGGGTTGT | 12000 PBM fluorescence, median of replicate spots
40 | Table S2 B row 3533 (dsDNA) DNA 1: CCATTTCCCGCCTACCGACCTGCTGCACCTCACGGA DNA 2: TCCGTGAGGTGCAGCAGGTCGGTAGGCGGGAAATGG | 9790 PBM fluorescence, median of replicate spots
41 | Table S2 B row 2667 (dsDNA) DNA 1: GGGATCTACTTCCTCTCTCGGCCTCGGGCGCTGCAC DNA 2: GTGCAGCGCCCGAGGCCGAGAGAGGAAGTAGATCCC | 6350 PBM fluorescence, median of replicate spots
42 | Table S2 B row 3173 (dsDNA) DNA 1: GACTGCACTTCCTCTGCTTCGAGGTCGGTGCTTAGC DNA 2: GCTAAGCACCGACCTCGAAGCAGAGGAAGTGCAGTC | 6100 PBM fluorescence, median of replicate spots
